Reference: patent EP4386000A1 (Nanjing Novoacine Bio-Technology Co., Ltd., dated 2024)

Assays:
[1] = target: T1, human CD25 (NP_000408.1) (Met 1-Cys 213) C-terminally fused with 6-histidine tag (human, UniProt P01589 22-213); assay: SPR (BIAcore X100), human CD25-his captured by anti-histidine antibody, antibody as analyte, 1:1 model
T1 construct: range 1-213; Expressed in CHO-K1 cells; also called human CD25-his
T1 sequence: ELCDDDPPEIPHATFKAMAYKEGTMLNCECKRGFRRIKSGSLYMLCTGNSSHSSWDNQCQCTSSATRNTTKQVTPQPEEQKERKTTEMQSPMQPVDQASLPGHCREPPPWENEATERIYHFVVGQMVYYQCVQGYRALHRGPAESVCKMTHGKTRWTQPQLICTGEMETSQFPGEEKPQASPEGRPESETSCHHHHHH

[2] = target: T2, CD25 on CD4+CD25+ Treg cells isolated from human PBMCs (human, UniProt P01589 22-272); assay: cell-based or functional assay
T2 sequence (looked up): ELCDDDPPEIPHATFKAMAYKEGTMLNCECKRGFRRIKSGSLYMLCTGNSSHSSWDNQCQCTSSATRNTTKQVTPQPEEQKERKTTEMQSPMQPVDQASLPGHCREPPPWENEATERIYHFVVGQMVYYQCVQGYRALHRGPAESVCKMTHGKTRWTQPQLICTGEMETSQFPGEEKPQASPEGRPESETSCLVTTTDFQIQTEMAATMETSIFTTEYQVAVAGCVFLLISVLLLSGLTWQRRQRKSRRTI

Kd [1]: 2.45 nM | koff [1]: 0.00137 s⁻¹ | kon [1]: 560000 M⁻¹ s⁻¹
B1: humanized antibody 2046-18H1L1-m2 (antibody, human IgG1, kappa, V domains shown)
VH: EVQLQESGPGLVKPSQTLSLTCTVSGYSITSDYAWNWIRQPPGKGLEWIGYISYSGITIYNPSLKSRVTISRDTSKNQFSLKLSSVTAADTAVYYCARWLLQIYYAMDYWGQGTLVTVSS
VL: EIVLTQSPGTLSLSPGERATLSCSSSQSLVHSNGNTYLHWYQQKPGQAPRLLIYKVSNRFSGIPDRFSGSGSGTDFTLTISRLEPEDFAVYYCSQSTHVPLTFGQGTKLEIKR
EC50, killing Tregs in vitro (ADCC reporter, jurkat/CD16a/NFAT-luc) [2]: 82.6 µg/mL
